In one series the test system is T1, GST-TRIPE32G.
T1 sequence: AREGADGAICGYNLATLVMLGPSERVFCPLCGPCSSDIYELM

The next series deals with T2, GST-TRIPT16M/L17S.
T2 sequence: T1 sequence with T16M, L17S, G32E

The next series deals with T3, GST-TRIPα.
T3 sequence: T1 sequence with G32E

Substitutions are numbered along the chain they refer to.

GST [GST: P08515], sequence (P08515 whole entry): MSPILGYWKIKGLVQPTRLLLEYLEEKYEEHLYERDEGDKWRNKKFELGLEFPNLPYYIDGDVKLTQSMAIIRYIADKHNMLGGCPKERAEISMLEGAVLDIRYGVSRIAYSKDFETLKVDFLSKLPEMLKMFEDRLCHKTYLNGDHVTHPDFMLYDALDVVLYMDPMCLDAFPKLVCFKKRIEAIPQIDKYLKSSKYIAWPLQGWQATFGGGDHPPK

Turning to MBP-Tgat (aa 1-255), the “Tgat GEF activity on RhoA, kinetics fluorescence assay (kobs)” value with GST [GST: P08515] is listed as “GST alone (not shown) ... had no effect”; in the series on GST-TRIPE32G it was “inhibited Tgat GEF activity in a dose-dependent manner”; with GST-TRIPT16M/L17S, “inhibited Tgat GEF activity in a dose-dependent manner”; with GST-TRIPα, “GST-TRIPα, at the same concentrations, had no effect”.
